This passage reports stoichiometry N results from PMC7618180.

Assay [1] has as its target C. elegans UBR4 (C. elegans). Put plainly: not stated; molecular weight of the purified C. elegans UBR4 complex (Fig. S13A).
The target in a further assay is human UBR4 (human) (UniProt Q5T4S7). Put plainly: mass photometry; isolated human UBR4/KCMF1/CALM1 complex, co-expressed in insect cells and purified via a tag on UBR4.

human UBR4, Q5T4S7 1-5183 (enzyme), sequence (Q5T4S7 whole entry): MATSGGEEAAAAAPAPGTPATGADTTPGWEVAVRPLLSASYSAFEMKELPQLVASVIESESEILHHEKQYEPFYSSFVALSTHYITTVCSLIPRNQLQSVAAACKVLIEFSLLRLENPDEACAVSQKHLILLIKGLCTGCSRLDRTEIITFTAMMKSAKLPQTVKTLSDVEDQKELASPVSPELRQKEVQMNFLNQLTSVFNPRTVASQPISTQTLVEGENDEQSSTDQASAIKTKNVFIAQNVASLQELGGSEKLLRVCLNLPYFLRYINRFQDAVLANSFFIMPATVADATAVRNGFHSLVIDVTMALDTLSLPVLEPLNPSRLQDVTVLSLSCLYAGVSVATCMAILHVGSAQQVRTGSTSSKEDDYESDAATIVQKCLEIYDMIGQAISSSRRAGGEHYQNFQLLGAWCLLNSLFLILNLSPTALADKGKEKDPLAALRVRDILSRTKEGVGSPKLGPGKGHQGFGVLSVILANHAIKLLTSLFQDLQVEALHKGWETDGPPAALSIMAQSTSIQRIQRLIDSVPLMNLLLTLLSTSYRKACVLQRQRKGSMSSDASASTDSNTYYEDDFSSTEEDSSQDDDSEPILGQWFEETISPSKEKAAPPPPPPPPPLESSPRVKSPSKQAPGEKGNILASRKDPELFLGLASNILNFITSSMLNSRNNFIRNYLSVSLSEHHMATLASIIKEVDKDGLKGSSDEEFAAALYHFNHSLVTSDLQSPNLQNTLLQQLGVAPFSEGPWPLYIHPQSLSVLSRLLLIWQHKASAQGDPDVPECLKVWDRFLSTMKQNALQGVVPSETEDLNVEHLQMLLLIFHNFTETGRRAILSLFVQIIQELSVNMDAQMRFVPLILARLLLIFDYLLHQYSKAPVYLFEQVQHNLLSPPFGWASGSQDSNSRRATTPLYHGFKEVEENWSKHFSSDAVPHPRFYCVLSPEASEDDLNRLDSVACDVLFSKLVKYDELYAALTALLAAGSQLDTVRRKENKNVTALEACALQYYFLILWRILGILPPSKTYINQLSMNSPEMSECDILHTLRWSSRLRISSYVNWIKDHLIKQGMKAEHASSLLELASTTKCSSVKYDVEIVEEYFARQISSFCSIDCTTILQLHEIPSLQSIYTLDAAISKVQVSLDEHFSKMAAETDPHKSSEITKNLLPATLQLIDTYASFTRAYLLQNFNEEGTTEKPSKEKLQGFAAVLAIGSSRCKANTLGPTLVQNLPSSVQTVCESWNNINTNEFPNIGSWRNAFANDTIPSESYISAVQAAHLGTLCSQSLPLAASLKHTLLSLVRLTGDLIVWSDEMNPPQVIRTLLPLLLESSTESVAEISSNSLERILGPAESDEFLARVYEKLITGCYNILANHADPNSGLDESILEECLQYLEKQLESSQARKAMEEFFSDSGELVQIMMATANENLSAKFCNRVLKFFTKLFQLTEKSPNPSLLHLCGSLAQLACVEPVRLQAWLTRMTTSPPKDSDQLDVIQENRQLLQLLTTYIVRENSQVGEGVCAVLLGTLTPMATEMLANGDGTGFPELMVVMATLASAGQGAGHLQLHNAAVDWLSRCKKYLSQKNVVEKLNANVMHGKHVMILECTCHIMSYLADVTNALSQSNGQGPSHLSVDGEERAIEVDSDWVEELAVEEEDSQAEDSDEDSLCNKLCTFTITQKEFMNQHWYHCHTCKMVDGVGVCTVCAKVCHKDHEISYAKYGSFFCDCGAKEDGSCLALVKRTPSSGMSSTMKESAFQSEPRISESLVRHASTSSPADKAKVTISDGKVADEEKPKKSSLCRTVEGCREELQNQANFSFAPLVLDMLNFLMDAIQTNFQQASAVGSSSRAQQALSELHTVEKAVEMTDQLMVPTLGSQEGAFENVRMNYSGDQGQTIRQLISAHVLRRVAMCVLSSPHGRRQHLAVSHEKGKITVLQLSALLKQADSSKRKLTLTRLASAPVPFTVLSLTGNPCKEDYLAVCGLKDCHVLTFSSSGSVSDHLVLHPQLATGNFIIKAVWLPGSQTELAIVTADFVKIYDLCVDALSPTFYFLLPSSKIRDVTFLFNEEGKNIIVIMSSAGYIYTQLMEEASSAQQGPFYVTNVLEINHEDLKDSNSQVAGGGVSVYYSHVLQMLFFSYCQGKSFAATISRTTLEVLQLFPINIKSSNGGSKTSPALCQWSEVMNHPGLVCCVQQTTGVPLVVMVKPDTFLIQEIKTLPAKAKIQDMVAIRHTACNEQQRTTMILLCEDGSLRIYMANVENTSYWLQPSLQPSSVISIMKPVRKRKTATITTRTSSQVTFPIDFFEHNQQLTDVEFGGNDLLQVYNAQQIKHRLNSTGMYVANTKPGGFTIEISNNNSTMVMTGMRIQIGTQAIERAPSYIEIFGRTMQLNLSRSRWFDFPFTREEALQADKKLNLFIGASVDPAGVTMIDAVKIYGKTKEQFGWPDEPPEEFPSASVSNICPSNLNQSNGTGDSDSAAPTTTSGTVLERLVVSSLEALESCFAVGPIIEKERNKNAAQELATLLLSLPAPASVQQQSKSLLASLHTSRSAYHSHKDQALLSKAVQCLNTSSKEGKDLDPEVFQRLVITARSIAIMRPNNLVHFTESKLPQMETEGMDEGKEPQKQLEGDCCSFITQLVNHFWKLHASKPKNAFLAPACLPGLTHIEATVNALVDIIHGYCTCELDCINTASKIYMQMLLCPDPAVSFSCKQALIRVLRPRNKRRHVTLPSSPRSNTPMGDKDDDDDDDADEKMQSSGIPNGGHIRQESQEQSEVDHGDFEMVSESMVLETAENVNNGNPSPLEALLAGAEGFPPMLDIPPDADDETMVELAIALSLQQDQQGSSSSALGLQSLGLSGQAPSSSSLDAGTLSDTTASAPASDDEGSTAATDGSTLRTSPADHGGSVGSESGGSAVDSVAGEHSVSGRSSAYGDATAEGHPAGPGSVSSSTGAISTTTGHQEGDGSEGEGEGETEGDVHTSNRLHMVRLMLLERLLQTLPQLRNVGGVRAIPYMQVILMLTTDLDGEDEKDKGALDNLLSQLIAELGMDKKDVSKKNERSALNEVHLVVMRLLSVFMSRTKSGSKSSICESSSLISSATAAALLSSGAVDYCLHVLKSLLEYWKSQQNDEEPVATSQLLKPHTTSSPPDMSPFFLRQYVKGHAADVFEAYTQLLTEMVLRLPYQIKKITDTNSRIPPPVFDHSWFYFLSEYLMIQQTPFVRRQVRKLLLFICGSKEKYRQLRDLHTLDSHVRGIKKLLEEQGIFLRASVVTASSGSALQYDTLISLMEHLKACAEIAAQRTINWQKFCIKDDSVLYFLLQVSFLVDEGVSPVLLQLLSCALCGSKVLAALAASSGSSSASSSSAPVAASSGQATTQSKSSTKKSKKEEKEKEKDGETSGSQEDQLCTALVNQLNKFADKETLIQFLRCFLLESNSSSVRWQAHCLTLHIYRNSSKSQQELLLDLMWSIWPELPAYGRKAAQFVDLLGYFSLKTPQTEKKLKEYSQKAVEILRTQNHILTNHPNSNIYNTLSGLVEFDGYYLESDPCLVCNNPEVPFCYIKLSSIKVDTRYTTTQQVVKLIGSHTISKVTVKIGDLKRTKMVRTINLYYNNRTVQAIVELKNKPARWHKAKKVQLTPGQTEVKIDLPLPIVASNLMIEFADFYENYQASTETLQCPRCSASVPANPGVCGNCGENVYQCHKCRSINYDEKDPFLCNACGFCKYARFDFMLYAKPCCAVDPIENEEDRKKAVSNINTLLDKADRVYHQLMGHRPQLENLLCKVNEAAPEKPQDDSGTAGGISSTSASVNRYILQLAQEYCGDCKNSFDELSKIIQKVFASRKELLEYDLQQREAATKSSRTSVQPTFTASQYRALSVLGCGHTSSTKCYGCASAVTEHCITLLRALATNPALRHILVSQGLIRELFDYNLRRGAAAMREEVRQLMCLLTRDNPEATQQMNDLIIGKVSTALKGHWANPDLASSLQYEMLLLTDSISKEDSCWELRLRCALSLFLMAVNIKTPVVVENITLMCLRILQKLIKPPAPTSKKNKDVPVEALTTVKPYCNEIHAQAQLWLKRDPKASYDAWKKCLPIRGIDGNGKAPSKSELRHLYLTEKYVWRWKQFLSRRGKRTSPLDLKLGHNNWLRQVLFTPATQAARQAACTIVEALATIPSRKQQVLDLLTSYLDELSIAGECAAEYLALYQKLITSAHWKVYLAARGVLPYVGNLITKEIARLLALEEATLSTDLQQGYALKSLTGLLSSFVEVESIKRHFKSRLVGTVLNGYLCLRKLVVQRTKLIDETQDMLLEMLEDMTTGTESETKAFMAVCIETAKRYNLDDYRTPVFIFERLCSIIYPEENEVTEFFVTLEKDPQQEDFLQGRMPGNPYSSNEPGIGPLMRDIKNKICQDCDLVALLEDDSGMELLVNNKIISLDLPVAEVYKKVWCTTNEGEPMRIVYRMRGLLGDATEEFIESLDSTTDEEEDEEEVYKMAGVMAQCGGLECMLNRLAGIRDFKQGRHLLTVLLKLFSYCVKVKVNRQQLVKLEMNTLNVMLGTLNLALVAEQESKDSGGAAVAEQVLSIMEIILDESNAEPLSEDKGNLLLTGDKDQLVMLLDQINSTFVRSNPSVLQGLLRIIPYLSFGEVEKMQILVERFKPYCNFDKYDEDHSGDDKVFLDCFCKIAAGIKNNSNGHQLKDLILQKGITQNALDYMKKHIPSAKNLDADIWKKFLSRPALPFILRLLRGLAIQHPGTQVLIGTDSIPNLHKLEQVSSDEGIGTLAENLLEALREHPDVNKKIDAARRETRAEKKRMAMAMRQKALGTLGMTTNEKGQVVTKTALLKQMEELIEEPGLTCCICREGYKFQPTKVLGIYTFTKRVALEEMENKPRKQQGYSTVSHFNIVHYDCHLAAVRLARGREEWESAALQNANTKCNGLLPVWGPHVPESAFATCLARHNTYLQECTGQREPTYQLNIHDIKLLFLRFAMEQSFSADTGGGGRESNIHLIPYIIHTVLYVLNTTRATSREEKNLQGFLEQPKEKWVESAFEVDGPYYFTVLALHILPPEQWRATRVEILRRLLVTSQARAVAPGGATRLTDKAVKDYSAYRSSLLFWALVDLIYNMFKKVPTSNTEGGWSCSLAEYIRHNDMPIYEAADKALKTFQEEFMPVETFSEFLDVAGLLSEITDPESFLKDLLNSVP

As usually defined, the stoichiometry N is the number of molecules, sites or subunits per partner or assembly. C. elegans UBR4, A0A0S4XR36 1-4218: in assay [1], the stoichiometry N came to 2.

Regarding human UBR4, Q5T4S7 1-5183 (enzyme), the stoichiometry N with human UBR4 (human) worked out at 2.
